Legend:
Experiment in all cases: cell-based or functional assay
[1] = molecular target: Neuraminidase of influenza A/Hawaii/70/2019 (H1N1)pdm09 (influenza A virus A/Hawaii/70/2019 (H1N1)pdm09)
[2] = molecular target: Neuraminidase of influenza A/Hong Kong/2671/2019 (H3N2) (influenza A virus A/Hong Kong/2671/2019 (H3N2))
[3] = molecular target: Neuraminidase of influenza B/Phuket/3073/2013 (Yamagata) (influenza B virus B/Phuket/3073/2013 (Yamagata))
[4] = molecular target: Neuraminidase of influenza B/Washington/02/2019 (Victoria) (influenza B virus B/Washington/02/2019 (Victoria))
[5] = molecular target: neuraminidase of influenza A/CA/7/2009 (H1N1pdm) (Influenza A virus)
[6] = molecular target: neuraminidase of influenza A/Hong Kong/1/1968 (H3N2) (Influenza A virus) (UniProt Q91MA2)
neuraminidase of influenza A/Hong Kong/1/1968 (H3N2) (Influenza A virus), sequence (Q91MA2 whole entry): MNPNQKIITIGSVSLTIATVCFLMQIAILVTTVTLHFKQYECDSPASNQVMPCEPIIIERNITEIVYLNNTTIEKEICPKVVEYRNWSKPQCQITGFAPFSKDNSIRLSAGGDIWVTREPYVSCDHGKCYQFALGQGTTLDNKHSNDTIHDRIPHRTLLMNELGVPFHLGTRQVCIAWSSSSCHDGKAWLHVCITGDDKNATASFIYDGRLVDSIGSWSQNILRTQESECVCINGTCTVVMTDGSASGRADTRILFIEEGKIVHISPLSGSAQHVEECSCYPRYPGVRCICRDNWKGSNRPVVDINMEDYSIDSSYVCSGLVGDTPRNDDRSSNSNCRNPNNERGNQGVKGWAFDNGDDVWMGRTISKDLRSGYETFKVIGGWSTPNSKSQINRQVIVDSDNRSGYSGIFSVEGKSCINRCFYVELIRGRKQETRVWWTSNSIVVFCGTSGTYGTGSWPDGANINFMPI

[7] = molecular target: neuraminidase of influenza B/Florida/4/2006 (Yamagata) (Influenza B virus)
[8] = molecular target: neuraminidase of influenza B/Malaysia/2506/2004 (Victoria) (Influenza B virus)

hIgG1 Fc (from UniProt P01857 84-329)
> 1000 nM: enzyme-linked lectin assay (ELLA) (IC50), fetuin substrate, live virus [1] | enzyme-linked lectin assay (ELLA) (IC50), fetuin substrate, live virus [2] | enzyme-linked lectin assay (ELLA) (IC50), fetuin substrate, live virus [3] | enzyme-linked lectin assay (ELLA) (IC50), fetuin substrate, live virus [4] | enzyme-linked lectin assay (ELLA) IC50, fetuin substrate, virus [5] | enzyme-linked lectin assay (ELLA) IC50, fetuin substrate, virus [6] | enzyme-linked lectin assay (ELLA) IC50, fetuin substrate, virus [7] | enzyme-linked lectin assay (ELLA) IC50, fetuin substrate, virus [8]

From patent US20260108618A1
